Drawing on article PMC8828441, this text covers stoichiometry N (copies per particle) for 1 substance.

The target of this assay is ADDomer-SpyTag (human adenovirus type 3). Put plainly: covalent SpyTag/SpyCatcher adduct on SDS-PAGE.

SpyCatcher had a stoichiometry N (copies per particle) of 60.
